Measurements published in the Human Domainome abundance scans (Beltran et al. 2025).
± gives the uncertainty stated by the source.

B1: POU domain, class 3, transcription factor 3, residues 320 to 388; numbered along this chain, P20264 (parent)
chain: DDLEQFAKQFKQRRIKLGFTQADVGLALGTLYGNVFSQTTICRFEALQLSFKNMCKLKPLLNKWLEEAD

Variants of: B1
Test: abundance fitness (aPCA) (normalised: wild type 0, dead -1); higher = more abundant; growth selection in yeast, the domain comes from the species named
Settings: Homo sapiens

Row | Variant | abundance fitness
1 | F19W | -0.408 ± 0.2
2 | F19I | 0.119 ± 0.18
3 | F19G | -1.03 ± 0.38
4 | F19E | -0.495 ± 0.43
5 | F19K | -0.426 ± 0.19
6 | F19A | -0.243 ± 0.12
7 | F19V | -0.236 ± 0.11
8 | F19S | -0.848 ± 0.3
9 | Q21L | -0.271 ± 0.14
10 | Q21T | -0.507 ± 0.35
11 | Q21W | -0.284 ± 0.14
12 | Q21M | -0.489 ± 0.25
13 | Q21V | -0.017 ± 0.11
14 | Q21C | -0.278 ± 0.39
15 | Q21I | 0.145 ± 0.28
16 | Q21P | -0.23 ± 0.15
17 | Q21H | -0.08 ± 0.11
18 | Q21R | -0.184 ± 0.065
19 | Q21K | -0.298 ± 0.18
20 | Q21Y | -0.147 ± 0.42
21 | Q21E | -0.061 ± 0.12
22 | Q21G | -0.629 ± 0.22
23 | Q21S | -0.242 ± 0.16
24 | Q21A | -0.281 ± 0.12

Row | Variant | abundance fitness
25 | N34A | -0.036 ± 0.073
26 | N34V | -0.21 ± 0.078
27 | N34K | 0.081 ± 0.13
28 | N34E | 0.136 ± 0.12
29 | N34Y | -0.295 ± 0.044
30 | N34G | 0.074 ± 0.066
31 | N34R | -0.051 ± 0.072
32 | N34S | 0.109 ± 0.066
33 | N34W | -0.84 ± 0.23
34 | N34D | -0.085 ± 0.26
35 | N34T | -0.098 ± 0.17
36 | N34F | -0.569 ± 0.2
37 | N34C | 0.307 ± 0.11
38 | N34Q | -0.172 ± 0.14
39 | N34L | -0.468 ± 0.14
40 | N34H | -0.094 ± 0.091
41 | N34M | -0.22 ± 0.13
42 | N34I | -0.235 ± 0.16
43 | T20K | -0.738 ± 0.28
44 | T20G | -0.556 ± 0.076
45 | T20L | -0.828 ± 0.26
46 | T20V | -1.02 ± 0.35
47 | T20A | -0.556 ± 0.16
48 | T20S | -0.079 ± 0.076

Row | Variant | abundance fitness
49 | T20W | -0.862 ± 0.26
50 | T20P | -0.627 ± 0.29
51 | T20R | -0.908 ± 0.17
52 | G18E | -0.893 ± 0.44
53 | G18H | -0.749 ± 0.23
54 | G18K | -0.546 ± 0.22
55 | G18R | -0.532 ± 0.12
56 | G18Q | -0.785 ± 0.32
57 | G18L | -0.935 ± 0.31
58 | G18V | -0.851 ± 0.19
59 | G18S | -0.906 ± 0.21
60 | G18A | -0.542 ± 0.2
61 | G18M | -0.778 ± 0.18
62 | G18N | -0.029 ± 0.13
63 | G18W | -1.06 ± 0.43
64 | G18P | -0.964 ± 0.28
65 | Q12W | -0.146 ± 0.15
66 | Q12D | -0.23 ± 0.21
67 | Q12E | -0.044 ± 0.13
68 | Q12P | -0.694 ± 0.21
69 | Q12C | -0.438 ± 0.16
70 | Q12K | -0.276 ± 0.11
71 | Q12Y | -0.176 ± 0.17
72 | Q12I | -0.594 ± 0.48

Row | Variant | abundance fitness
73 | Q12M | -0.409 ± 0.19
74 | Q12S | -0.143 ± 0.1
75 | Q12R | -0.124 ± 0.064
76 | Q12L | -0.201 ± 0.07
77 | Q12T | -0.283 ± 0.11
78 | Q12F | -0.654 ± 0.27
79 | Q12V | -0.265 ± 0.085
80 | Q12G | -0.636 ± 0.075
81 | Q12A | -0.1 ± 0.085
82 | A27G | -0.262 ± 0.09
83 | A27S | -0.239 ± 0.083
84 | A27K | 0.021 ± 0.11
85 | A27Q | 0.228 ± 0.12
86 | A27M | -0.427 ± 0.18
87 | A27V | -0.509 ± 0.079
88 | A27C | 0.232 ± 0.24
89 | A27R | 0.031 ± 0.056
90 | A27Y | -0.502 ± 0.17
91 | A27E | -0.375 ± 0.11
92 | A27D | -0.613 ± 0.21
93 | A27I | -0.711 ± 0.22
94 | A27W | -0.101 ± 0.08
95 | A27H | -0.022 ± 0.15
96 | A27L | -0.456 ± 0.098

Row | Variant | abundance fitness
97 | A27P | -0.8 ± 0.2
98 | V24N | -0.74 ± 0.33
99 | V24S | -0.941 ± 0.31
100 | V24P | -0.673 ± 0.29
101 | V24L | -0.679 ± 0.18
102 | V24K | -0.899 ± 0.25
103 | V24D | -0.882 ± 0.44
104 | V24R | -0.788 ± 0.12
105 | V24W | -1.05 ± 0.35
106 | V24I | -0.766 ± 0.37
107 | V24C | -0.531 ± 0.41
108 | V24F | 0.197 ± 0.23
109 | V24A | -0.677 ± 0.22
110 | R13L | -0.824 ± 0.16
111 | R13Q | -0.32 ± 0.098
112 | R13H | -0.263 ± 0.16
113 | R13V | -0.311 ± 0.099
114 | R13K | -0.062 ± 0.086
115 | R13M | -0.578 ± 0.15
116 | R13S | -0.582 ± 0.15
117 | R13P | -0.865 ± 0.21
118 | R13T | -0.561 ± 0.18
119 | R13G | -0.745 ± 0.18
120 | R13Y | -0.651 ± 0.17

Row | Variant | abundance fitness
121 | R13A | -0.385 ± 0.11
122 | R13N | -0.698 ± 0.38
123 | R13W | -0.697 ± 0.16
124 | R13E | -0.311 ± 0.15
125 | R13I | -0.771 ± 0.27
126 | D23Q | 0.039 ± 0.13
127 | D23R | -0.187 ± 0.075
128 | D23S | -0.743 ± 0.17
129 | D23P | -1.04 ± 0.42
130 | D23V | -0.937 ± 0.17
131 | D23N | -0.687 ± 0.48
132 | D23Y | -0.778 ± 0.38
133 | D23I | -0.704 ± 0.46
134 | D23F | -0.998 ± 0.49
135 | D23G | -0.185 ± 0.06
136 | D23K | -0.764 ± 0.24
137 | D23E | -0.023 ± 0.049
138 | D23M | -0.802 ± 0.26
139 | A22T | -0.162 ± 0.27
140 | A22S | -0.243 ± 0.085
141 | A22P | -0.849 ± 0.44
142 | A22Q | 0.036 ± 0.2
143 | A22V | -0.513 ± 0.1
144 | A22I | -0.392 ± 0.39

Row | Variant | abundance fitness
145 | A22G | -0.25 ± 0.13
146 | A22H | 0.228 ± 0.34
147 | A22K | 0.103 ± 0.1
148 | A22F | -0.293 ± 0.21
149 | A22L | -0.49 ± 0.12
150 | A22W | -0.83 ± 0.26
151 | A22E | -0.17 ± 0.15
152 | A22R | -0.163 ± 0.082
153 | Y32L | 0.017 ± 0.12
154 | Y32W | -0.276 ± 0.14
155 | Y32A | -0.412 ± 0.1
156 | Y32E | -0.335 ± 0.25
157 | Y32H | -0.099 ± 0.1
158 | Y32G | -0.225 ± 0.054
159 | Y32K | -0.559 ± 0.3
160 | Y32Q | -0.102 ± 0.17
161 | Y32P | -0.685 ± 0.21
162 | Y32T | -0.526 ± 0.19
163 | Y32D | -0.352 ± 0.18
164 | Y32S | 0.108 ± 0.053
165 | Y32V | -0.557 ± 0.15
166 | Y32M | -0.647 ± 0.19
167 | Y32R | -0.44 ± 0.14
